Literature values, collected in PMC8174103.

Molecular target: EGFR (Homo sapiens) (UniProt P00533)

Kd: 2 nM
Substance: EGF (from UniProt P01133)
